Assay results published in publication PMC5253658, “SCIMP is a transmembrane non-TIR TLR adaptor that promotes proinflammatory cytokine production from macrophages” (Nature Communications, 2017).

T1: His-TLR4-TIR (cytoplasmic TIR domain of mouse TLR4, amino acids 670-835) (mouse, UniProt Q9QUK6 670-835)
T1 construct: TLR4, mouse, cytoplasmic TIR domain, amino acids 670-835; codon-optimized gene from Genscript; subcloned into pET28a; also called His-tagged TLR4-TIR domain; recombinant TLR4-TIR; source: E. coli, purified (Ni-NTA)
T1 sequence (looked up): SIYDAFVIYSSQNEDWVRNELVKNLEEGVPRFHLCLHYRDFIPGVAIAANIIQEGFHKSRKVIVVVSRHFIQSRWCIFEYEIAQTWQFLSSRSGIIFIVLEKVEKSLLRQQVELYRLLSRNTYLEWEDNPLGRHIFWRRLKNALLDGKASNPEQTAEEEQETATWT

B1: GST-SCIMP-T1 (entire intracellular region of murine SCIMP, amino acids 29-150) (domain or fragment)
chain: not shown
notes: subcloned into pGEX6p-1; also called SCIMP-GST; source: E. coli, purified (glutathione-Sepharose beads)
B2: GST-SCIMP-T1 Y96F (domain or fragment)
chain: not shown
notes: SCIMP, mouse, T1, amino acids 29-150, Y96F; also called (unphosphorylated) Y96F SCIMP mutant; source: E. coli, purified (glutathione-Sepharose beads)
B3: GST-SCIMP-T2 (C terminal region of murine SCIMP, amino acids 93-150) (domain or fragment)
chain: not shown
notes: SCIMP, mouse, C terminal region, amino acids 93-150; lacks the PRD; subcloned into pGEX6p-1; source: E. coli, purified (glutathione-Sepharose beads)
B4: fluorescently labelled recombinant SCIMP-T1 (BODIPY FL) (domain or fragment)
chain: not shown
modifications: labelled with BODIPY FL Iodoacetamide
notes: SCIMP, mouse, T1, amino acids 29-150; also called labelled SCIMP; fluorescently labelled SCIMP-T1; source: E. coli, purified

Legend:
[1] = target: T1, His-TLR4-TIR (cytoplasmic TIR domain of …); test: pull-down; GST-SCIMP (T1, T2 or T1 mutants) as bait, recombinant His-TLR4-TIR as prey; immunoblot against the His tag; settings: both partners purified
[2] = target: T1, His-TLR4-TIR (cytoplasmic TIR domain of …); test: other fluorescence titration; BODIPY FL-labelled SCIMP-T1 titrated with unlabelled TLR4-TIR; 25 °C, 30 mM Tris pH 7.4, 150 mM NaCl, 1 mM dithiothreitol; curve fit (Grafit); settings: both partners purified

Binder | binding result [1] | Kd [2] [nM]
B1 | binds | –
B2 | binds | –
B3 | binds | –
B4 | – | 212
